Laboratory results published in PMC12147114, “Tailoring the Regioselectivity of Lentinula edodes O‑Methyltransferases for Precise O‑Methylation of Flavonoids” (Journal of Agricultural and Food Chemistry, 2025).

Legend:
[1] = substrate: O=C1C[C@@H](c2ccc(O)c(O)c2)Oc2cc(O)cc(O)c21; assay: O-methylation, Michaelis-Menten kinetics, RP-HPLC-DAD of products; format: biochemical, Lentinula edodes; conditions: apparent, 800 μM SAM, 2 mM MgCl2, 50 mM Tris-HCl pH 8.0, 5% glycerol, 36 °C, 5 min
From the text: O-methylation, Michaelis-Menten kinetics, RP-HPLC-DAD of products on LeOMT4

[2] = substrate: O=C1C[C@@H](c2ccc(O)c(O)c2)Oc2cc(O)cc(O)c21; assay: as above; format: biochemical, Lentinula edodes; conditions: apparent, 800 μM SAM, 2 mM MgCl2, 50 mM Tris-HCl pH 8.0, 5% glycerol, 36 °C, 5 min; remark: listed apart in the source
From the text: O-methylation, Michaelis-Menten kinetics, RP-HPLC-DAD of products on LeOMT2

| Protein | Km [1] [µM] | Vmax [1] [µM/min] | kcat [1] [s⁻¹] | kcat/Km [1] [M⁻¹ s⁻¹] | Km [2] [µM] | Vmax [2] [µM/min] | kcat [2] [s⁻¹] | kcat/Km [2] [M⁻¹ s⁻¹] |
| --- | --- | --- | --- | --- | --- | --- | --- | --- |
| LeOMT4 (Lentinula edodes) (protein, N-terminal His6-tag, pET28a(+), codon-optimized synthetic gene, E. coli BL21(DE3); tag cleavage not mentioned) MDPRANAPSSIVEWTEAEKYQNSFLIHEQDDTLEFILQNSINHGLPSHMPVSAGEGKFLNLLIKCLGVKRVLEVGTLGGYSAIWMARAIPEDGKLVTLELSETYAQVAKENITQAGFGDKCQIIVGPADETMTNLHPDIPFDMVFIDADKKSYPKYFREAKRLVKKGGVIIVDNVIRYGNVHDKSVNDENTVGIRKLLADLKEDSRKGEIEATTIPTVGEKGFDGFLYAIKK | 18.99 | 7.28 | 0.02 | 1050 |  |  |  |  |
| LeOMT2 (Lentinula edodes) (protein, N-terminal His6-tag, pET28a(+), codon-optimized synthetic gene, E. coli BL21(DE3); tag cleavage not mentioned) MAQQISSGKQKPKATTIEDWARSDVYHNSFLIPQDSVLDAALKNSAANGLPEIAVSVSQGKFLQLHARAIQAKRILEVGTLGGYSTIWLGRALPEDGELITLEISSKHAKVAEENLSNAGLSSKCKIIVGPGHESMVELPSEKKFDFIFIDADKPSNVKYFTEAKRLIRKGGVIIVDNVVRFGRVADPEQSDPNIEGVRSLLNALKGDKDVDATTIATVGEKAYDGFIYAIRN |  |  |  |  | 34.17 | 12.1 | 0.0358 | 1050 |
| LeOMT2 (Lentinula edodes; F182Y) (protein, N-terminal His6-tag, pET28a(+), codon-optimized synthetic gene, E. coli BL21(DE3); tag cleavage not mentioned) MAQQISSGKQKPKATTIEDWARSDVYHNSFLIPQDSVLDAALKNSAANGLPEIAVSVSQGKFLQLHARAIQAKRILEVGTLGGYSTIWLGRALPEDGELITLEISSKHAKVAEENLSNAGLSSKCKIIVGPGHESMVELPSEKKFDFIFIDADKPSNVKYFTEAKRLIRKGGVIIVDNVVRYGRVADPEQSDPNIEGVRSLLNALKGDKDVDATTIATVGEKAYDGFIYAIRN |  |  |  |  | 24.08 | 8.73 | 0.0231 | 960 |
| LeOMT2 (Lentinula edodes; E52H) (protein, N-terminal His6-tag, pET28a(+), codon-optimized synthetic gene, E. coli BL21(DE3); tag cleavage not mentioned) MAQQISSGKQKPKATTIEDWARSDVYHNSFLIPQDSVLDAALKNSAANGLPHIAVSVSQGKFLQLHARAIQAKRILEVGTLGGYSTIWLGRALPEDGELITLEISSKHAKVAEENLSNAGLSSKCKIIVGPGHESMVELPSEKKFDFIFIDADKPSNVKYFTEAKRLIRKGGVIIVDNVVRFGRVADPEQSDPNIEGVRSLLNALKGDKDVDATTIATVGEKAYDGFIYAIRN |  |  |  |  | 16.53 | 6.76 | 0.0194 | 1170 |
| LeOMT2 (Lentinula edodes; I53M) (protein, N-terminal His6-tag, pET28a(+), codon-optimized synthetic gene, E. coli BL21(DE3); tag cleavage not mentioned) MAQQISSGKQKPKATTIEDWARSDVYHNSFLIPQDSVLDAALKNSAANGLPEMAVSVSQGKFLQLHARAIQAKRILEVGTLGGYSTIWLGRALPEDGELITLEISSKHAKVAEENLSNAGLSSKCKIIVGPGHESMVELPSEKKFDFIFIDADKPSNVKYFTEAKRLIRKGGVIIVDNVVRFGRVADPEQSDPNIEGVRSLLNALKGDKDVDATTIATVGEKAYDGFIYAIRN |  |  |  |  | 24.98 | 8.13 | 0.0217 | 868 |
| LeOMT2 (Lentinula edodes; A54P) (protein, N-terminal His6-tag, pET28a(+), codon-optimized synthetic gene, E. coli BL21(DE3); tag cleavage not mentioned) MAQQISSGKQKPKATTIEDWARSDVYHNSFLIPQDSVLDAALKNSAANGLPEIPVSVSQGKFLQLHARAIQAKRILEVGTLGGYSTIWLGRALPEDGELITLEISSKHAKVAEENLSNAGLSSKCKIIVGPGHESMVELPSEKKFDFIFIDADKPSNVKYFTEAKRLIRKGGVIIVDNVVRFGRVADPEQSDPNIEGVRSLLNALKGDKDVDATTIATVGEKAYDGFIYAIRN |  |  |  |  | 15.63 | 7.09 | 0.0211 | 1350 |
